Patent publication US10967068B2, “Stability-modulating linkers for use with antibody drug conjugates” (priority 2014, dated 2021)
*1 amine or outer side, *2 acyl side, *3 side chain or, on linkers, in order; H or OH if unused. Where a SMILES comes first, the peptide text is derived from it. [ ]: non-standard residue; d: D form. The star is where a group is joined. Dolaproine = CO[C@@H]([C@@H]1CCCN1)[C@@H](C)C(=O)O; Dil = CC[C@H](C)[C@H](NC)[C@@H](CC(=O)O)OC; Benzenesulfonyl = O=S(=O)(c1ccccc1)*; PABC = O=C(OCc1ccc(N[*:1])cc1)[*:2]; Doe = c1ccc(C[C@H](N*)c2nccs2)cc1; Glyceroyl(2S) = O=C([C@@H](O)CO)*; Cit = NC(=O)NCCC[C@H](N)C(=O)O; Propanoyl(3-OH) = O=C(CCO)*; X1 = NCCOCCOCCOCCOCCOCC*; dLac = C[C@@H](O)C(=O)O; Lac = C[C@H](O)C(=O)O; Aib = CC(C)(N)C(=O)O; Ethyl(2-NH2) = NCC*; Ms = CS(=O)(=O)*; X3 = NCCOCC*

Experiment: In Vitro Stability Assay—Mouse Plasma
Type: in vitro ADME
Settings: for DAR: before plasma incubation
[1] = attachment position L11B, % DAR remaining after plasma 3 or 4.5 days
[2] = Trop-2 antibody attachment position TG6, HIC or mass spectrometry
[3] = attachment position TG6, % DAR remaining after incubation in plasma for 3 or 4.5 days
[4] = attachment position TG6, plasma species not printed in table (values match mouse plasma, Table 4)

Protocol: 100-200 ug of ADC were incubated in mouse plasma (provided by Bioreclamation) supplemented with 1×PBS to the final ADC concentration of 0.125 mg/mL. Following incubation for 3-7 days, samples were diluted with an equal volume of 1×PBS, and ADCs were isolated using Trop2 antigen coupled to CNBr-activated Sepharose (GE Healthcare) using standard protocols. Drug-antibody ratios were assessed before and after in vitro exposure using HIC methods and mass spectrometry.
DAR values for conjugates purified after plasma incubation were compared to DAR values prior to plasma treatment.

| Compound | DAR after plasma incubation for 3 to 4.5 days (attachment position L11B) | Conjugate stability (%) [1] [%] | DAR (attachment position L11B) | DAR [2] | Conjugate stability (%) [3] [%] | DAR after plasma incubation for 3 to 4.5 days [4] | DAR (attachment position H7C) | DAR (attachment position H8A) | DAR (attachment position H10) | DAR (attachment position LCQ04) |
| --- | --- | --- | --- | --- | --- | --- | --- | --- | --- | --- |
| CC[C@H](C)[C@@H]([C@@H](CC(=O)N1CCC[C@H]1[C@H](OC)[C@@H](C)C(=O)N[C@@H](Cc1ccccc1)c1nccs1)OC)N(C)C(=O)[C@@H](NC(=O)C(C)(C)NC(=O)OCc1ccc(NC(=O)[C@H](CCCNC(N)=O)NC(=O)[C@@H](NC(=O)[C@H](CCCCN)NC(=O)[C@H](C)O)C(C)C)cc1)C(C)C [Example 40, N˜2˜-[(2S)-2-hydroxypropanoyl]-L-lysylvalyl-N-{4-[(8S,11S,12R)-11-[(2S)-butan-2-yl]-12-(2-{(2S)-2-[(1R,2R)-1-methoxy-2-methyl-3-oxo-3-{[(1S)-2-phenyl-1-(1,3-thiazol-2-yl)ethyl]amino}propyl]pyrrolidin-1-yl}-2-oxoethyl)-5,5,10-trimethyl-3,6,9-trioxo-8-(propan-2-yl)-2,13-dioxa-4,7,10-triazatetradec-1-yl]phenyl}-N˜5˜-carbamoyl-L-ornithinamide] (H-[Lac]KV[Cit][PABC][Aib]V[Dil][Dolaproine]-Doe) | 1.08 | 58 | 1.87 | – | – | – | – | – | – | – |
| CC[C@H](C)[C@@H]([C@@H](CC(=O)N1CCC[C@H]1[C@H](OC)[C@@H](C)C(=O)N[C@@H](Cc1ccccc1)c1nccs1)OC)N(C)C(=O)[C@@H](NC(=O)C(C)(C)NC(=O)OCc1ccc(NC(=O)[C@H](CCCNC(N)=O)NC(=O)[C@@H](NC(=O)[C@H](CCCCN)NC(=O)[C@@H](C)O)C(C)C)cc1)C(C)C [Example 41, N˜2˜-[(2R)-2-hydroxypropanoyl]-L-lysylvalyl-N-{4-[(8S,11S,12R)-11-[(2S)-butan-2-yl]-12-(2-{(2S)-2-[(1R,2R)-1-methoxy-2-methyl-3-oxo-3-{[(1S)-2-phenyl-1-(1,3-thiazol-2-yl)ethyl]amino}propyl]pyrrolidin-1-yl}-2-oxoethyl)-5,5,10-trimethyl-3,6,9-trioxo-8-(propan-2-yl)-2,13-dioxa-4,7,10-triazatetradec-1-yl]phenyl}-N˜5˜-carbamoyl-L-ornithinamide] (H-[dLac]KV[Cit][PABC][Aib]V[Dil][Dolaproine]-Doe) | 0.91 | 49 | 1.86 | – | – | – | – | – | – | – |
| CC[C@H](C)[C@@H]([C@@H](CC(=O)N1CCC[C@H]1[C@H](OC)[C@@H](C)C(=O)N[C@@H](Cc1ccccc1)c1nccs1)OC)N(C)C(=O)[C@@H](NC(=O)C(C)(C)NC(=O)OCc1ccc(NC(=O)[C@H](CCCNC(N)=O)NC(=O)[C@@H](NC(=O)[C@H](CCCCN)NC(=O)[C@@H](O)CO)C(C)C)cc1)C(C)C [Example 42, N˜2˜-[(2S)-2,3-dihydroxypropanoyl]-L-lysylvalyl-N-{4-[(8S,11S,12R)-11-[(2S)-butan-2-yl]-12-(2-{(2S)-2-[(1R,2R)-1-methoxy-2-methyl-3-oxo-3-{[(1S)-2-phenyl-1-(1,3-thiazol-2-yl)ethyl]amino}propyl]pyrrolidin-1-yl}-2-oxoethyl)-5,5,10-trimethyl-3,6,9-trioxo-8-(propan-2-yl)-2,13-dioxa-4,7,10-triazatetradec-1-yl]phenyl}-N˜5˜-carbamoyl-L-ornithinamide] ({Glyceroyl(2S)}-KV[Cit][PABC][Aib]V[Dil][Dolaproine]-Doe) | 1.60 | 85 | 1.87 | – | – | – | – | – | – | – |
| CC[C@H](C)[C@@H]([C@@H](CC(=O)N1CCC[C@H]1[C@H](OC)[C@@H](C)C(=O)N[C@@H](Cc1ccccc1)c1nccs1)OC)N(C)C(=O)[C@@H](NC(=O)C(C)(C)NC(=O)OCc1ccc(NC(=O)[C@H](CCCNC(N)=O)NC(=O)[C@@H](NC(=O)[C@H](CCCCN)NC(=O)CCO)C(C)C)cc1)C(C)C [Example 43, N˜2˜-(3-hydroxypropanoyl)-L-lysylvalyl-N-{4-[(8S,11S,12R)-11-[(2S)-butan-2-yl]-12-(2-{(2S)-2-[(1R,2R)-1-methoxy-2-methyl-3-oxo-3-{[(1S)-2-phenyl-1-(1,3-thiazol-2-yl)ethyl]amino}propyl]pyrrolidin-1-yl}-2-oxoethyl)-5,5,10-trimethyl-3,6,9-trioxo-8-(propan-2-yl)-2,13-dioxa-4,7,10-triazatetradec-1-yl]phenyl}-N˜5˜-carbamoyl-L-ornithinamide] ({Propanoyl(3-OH)}-KV[Cit][PABC][Aib]V[Dil][Dolaproine]-Doe) | 1.23 | 76 | 1.62 | – | – | – | – | – | – | – |
| CC[C@H](C)[C@@H]([C@@H](CC(=O)N1CCC[C@H]1[C@H](OC)[C@@H](C)C(=O)N[C@@H](Cc1ccccc1)c1nccs1)OC)N(C)C(=O)[C@@H](NC(=O)C(C)(C)NC(=O)OCc1ccc(NC(=O)[C@H](CCCNC(N)=O)NC(=O)[C@@H](NC(=O)[C@H](CCCCN)NS(C)(=O)=O)C(C)C)cc1)C(C)C [Example 44, N˜2˜-(methylsulfonyl)lysyl-L-valyl-N-{4-[(8S,11S,12R)-11-[(2S)-butan-2-yl]-12-(2-{(2S)-2-[(1R,2R)-1-methoxy-2-methyl-3-oxo-3-{[(1S)-2-phenyl-1-(1,3-thiazol-2-yl)ethyl]amino}propyl]pyrrolidin-1-yl}-2-oxoethyl)-5,5,10-trimethyl-3,6,9-trioxo-8-(propan-2-yl)-2,13-dioxa-4,7,10-triazatetradec-1-yl]phenyl}-N˜5˜-carbamoylornithinamide] (Ms-KV[Cit][PABC][Aib]V[Dil][Dolaproine]-Doe) | 0.25 | 17 | 1.50 | 1.74 | 47 | 0.82 | – | – | – | – |
| CC[C@H](C)[C@@H]([C@@H](CC(=O)N1CCC[C@H]1[C@H](OC)[C@@H](C)C(=O)N[C@@H](Cc1ccccc1)c1nccs1)OC)N(C)C(=O)[C@@H](NC(=O)C(C)(C)NC(=O)OCc1ccc(NC(=O)[C@H](CCCNC(N)=O)NC(=O)[C@@H](NC(=O)[C@H](CCCCN)NS(=O)(=O)c2ccccc2)C(C)C)cc1)C(C)C [Example 45, N˜2˜-(phenylsulfonyl)lysyl-L-valyl-N-{4-[(8S,11S,12R)-11-[(2S)-butan-2-yl]-12-(2-{(2S)-2-[(1R,2R)-1-methoxy-2-methyl-3-oxo-3-{[(1S)-2-phenyl-1-(1,3-thiazol-2-yl)ethyl]amino}propyl]pyrrolidin-1-yl}-2-oxoethyl)-5,5,10-trimethyl-3,6,9-trioxo-8-(propan-2-yl)-2,13-dioxa-4,7,10-triazatetradec-1-yl]phenyl}-N˜5˜-carbamoylornithinamide] (Benzenesulfonyl-KV[Cit][PABC][Aib]V[Dil][Dolaproine]-Doe) | 0 | 0 | 0.66 | 1.42 | 3 | 0.04 | – | – | – | – |
| CC[C@H](C)[C@@H]([C@@H](CC(=O)N1CCC[C@H]1[C@H](OC)[C@@H](C)C(=O)N[C@@H](Cc1ccccc1)c1nccs1)OC)N(C)C(=O)[C@@H](NC(=O)C(C)(C)NC(=O)OCc1ccc(NC(=O)[C@H](CCCNC(N)=O)NC(=O)[C@@H](NC(=O)[C@@H](COCCN)NC(C)=O)C(C)C)cc1)C(C)C [Example 46, N-acetyl-O-(2-aminoethyl)-D-seryl-L-valyl-N-{4-[(8S,11S,12R)-11-[(2S)-butan-2-yl]-12-(2-{(2S)-2-[(1R,2R)-1-methoxy-2-methyl-3-oxo-3-{[(1S)-2-phenyl-1-(1,3-thiazol-2-yl)ethyl]amino}propyl]pyrrolidin-1-yl}-2-oxoethyl)-5,5,10-trimethyl-3,6,9-trioxo-8-(propan-2-yl)-2,13-dioxa-4,7,10-triazatetradec-1-yl]phenyl}-N˜5˜-carbamoylornithinamide] (Ac-[dS](Ethyl(2-NH2))V[Cit][PABC][Aib]V[Dil][Dolaproine]-Doe) | 0.69 | 51 | 1.36 | – | – | – | – | – | – | – |
| CC[C@H](C)[C@@H]([C@@H](CC(=O)N1CCC[C@H]1[C@H](OC)[C@@H](C)C(=O)N[C@@H](Cc1ccccc1)c1nccs1)OC)N(C)C(=O)[C@@H](NC(=O)C(C)(C)NC(=O)OCc1ccc(NC(=O)[C@H](CCCNC(N)=O)NC(=O)[C@@H](NC(=O)[C@H](COCCOCCN)NC(C)=O)C(C)C)cc1)C(C)C [Example 47, N-acetyl-O-[2-(2-aminoethoxy)ethyl]-L-seryl-L-valyl-N-{4-[(8S,11S,12R)-11-[(2S)-butan-2-yl]-12-(2-{(2S)-2-[(1R,2R)-1-methoxy-2-methyl-3-oxo-3-{[(1S)-2-phenyl-1-(1,3-thiazol-2-yl)ethyl]amino}propyl]pyrrolidin-1-yl}-2-oxoethyl)-5,5,10-trimethyl-3,6,9-trioxo-8-(propan-2-yl)-2,13-dioxa-4,7,10-triazatetradec-1-yl]phenyl}-N˜5˜-carbamoylornithinamide] (Ac-S(X3)V[Cit][PABC][Aib]V[Dil][Dolaproine]-Doe) | 0.40 | 20 | 1.96 | – | – | – | – | – | – | – |
| CC[C@H](C)[C@@H]([C@@H](CC(=O)N1CCC[C@H]1[C@H](OC)[C@@H](C)C(=O)N[C@@H](Cc1ccccc1)c1nccs1)OC)N(C)C(=O)[C@@H](NC(=O)C(C)(C)NC(=O)OCc1ccc(NC(=O)[C@H](CCCNC(N)=O)NC(=O)[C@@H](NC(=O)[C@H](COCCOCCOCCOCCOCCOCCN)NC(C)=O)C(C)C)cc1)C(C)C [Example 48, N-acetyl-O-(17-amino-3,6,9,12,15-pentaoxaheptadec-1-yl)-L-seryl-L-valyl-N-{4-[(8S,11S,12R)-11-[(2S)-butan-2-yl]-12-(2-{(2S)-2-[(1R,2R)-1-methoxy-2-methyl-3-oxo-3-{[(1S)-2-phenyl-1-(1,3-thiazol-2-yl)ethyl]amino}propyl]pyrrolidin-1-yl}-2-oxoethyl)-5,5,10-trimethyl-3,6,9-trioxo-8-(propan-2-yl)-2,13-dioxa-4,7,10-triazatetradec-1-yl]phenyl}-N˜5˜-carbamoylornithinamide] (Ac-S(X1)V[Cit][PABC][Aib]V[Dil][Dolaproine]-Doe) | 0 | 0 | 1.94 | – | – | – | – | – | – | – |
| AcLys-vc0101 [Example 11, reference compound] | – | – | 1.87 | – | – | – | 1.90 | 1.82 | 1.62 | 1.88 |
| AcLys-vcMMAD [Example 9, reference compound] | – | – | – | 1.97 | – | – | – | – | – | – |
